Laboratory results as given in patent US20040136985A1, “Methods of modifying behavior of CD9-expressing cells” (priority 2002, published 2004).
Where “and” joins values, the source holds several entries; their conditions need not be identical. Equal values may be shown once. Values belong to the substance of their own block, whether it stands above or below them.

Experiments:
[1] = biological target: hamster integrin subunit β1 on CHO cells (hamster); experiment: flow cytometry, CD9-CHO-B2 cells
[2] = biological target: hamster integrin subunit β1 on CHO cells (hamster); experiment: flow cytometry, MOCK-CHO-B2 cells
[3] = biological target: hamster integrin subunit β1 on CHO cells (hamster); experiment: flow cytometry, CD9-CHO-K1 cells
[4] = biological target: hamster integrin subunit β1 on CHO cells (hamster); experiment: flow cytometry, MOCK-CHO-K1 cells
[5] = biological target: hamster integrin α5β1 on CHO cells (hamster); experiment: flow cytometry, CD9-CHO-K1 cells
[6] = biological target: hamster integrin α5β1 on CHO cells (hamster); experiment: flow cytometry, MOCK-CHO-K1 cells
[7] = biological target: purified platelet CD9 (human) (UniProt P21926); experiment: ELISA, FN titrated on immobilized platelet CD9, 2.5 mM CaCl2
[8] = biological target: peptide 6 (human); experiment: ELISA, FN 75 µg/ml on immobilized peptide (10 µM coat)
[9] = biological target: peptide 5 (human); experiment: as above
[10] = biological target: His6-rCD9 (human) (UniProt P21926); experiment: ELISA, FN titrated on immobilized His6-rCD9, 2.5 mM Ca2+
[11] = biological target: His6-rCD9 (human) (UniProt P21926); experiment: ELISA, absolute values, FN on immobilized His6-rCD9

Sequence of human plasma fibronectin, P02751 32-2296 (ligand) (P02751 other isoform, or with tags, fused parts or gaps limits assumed): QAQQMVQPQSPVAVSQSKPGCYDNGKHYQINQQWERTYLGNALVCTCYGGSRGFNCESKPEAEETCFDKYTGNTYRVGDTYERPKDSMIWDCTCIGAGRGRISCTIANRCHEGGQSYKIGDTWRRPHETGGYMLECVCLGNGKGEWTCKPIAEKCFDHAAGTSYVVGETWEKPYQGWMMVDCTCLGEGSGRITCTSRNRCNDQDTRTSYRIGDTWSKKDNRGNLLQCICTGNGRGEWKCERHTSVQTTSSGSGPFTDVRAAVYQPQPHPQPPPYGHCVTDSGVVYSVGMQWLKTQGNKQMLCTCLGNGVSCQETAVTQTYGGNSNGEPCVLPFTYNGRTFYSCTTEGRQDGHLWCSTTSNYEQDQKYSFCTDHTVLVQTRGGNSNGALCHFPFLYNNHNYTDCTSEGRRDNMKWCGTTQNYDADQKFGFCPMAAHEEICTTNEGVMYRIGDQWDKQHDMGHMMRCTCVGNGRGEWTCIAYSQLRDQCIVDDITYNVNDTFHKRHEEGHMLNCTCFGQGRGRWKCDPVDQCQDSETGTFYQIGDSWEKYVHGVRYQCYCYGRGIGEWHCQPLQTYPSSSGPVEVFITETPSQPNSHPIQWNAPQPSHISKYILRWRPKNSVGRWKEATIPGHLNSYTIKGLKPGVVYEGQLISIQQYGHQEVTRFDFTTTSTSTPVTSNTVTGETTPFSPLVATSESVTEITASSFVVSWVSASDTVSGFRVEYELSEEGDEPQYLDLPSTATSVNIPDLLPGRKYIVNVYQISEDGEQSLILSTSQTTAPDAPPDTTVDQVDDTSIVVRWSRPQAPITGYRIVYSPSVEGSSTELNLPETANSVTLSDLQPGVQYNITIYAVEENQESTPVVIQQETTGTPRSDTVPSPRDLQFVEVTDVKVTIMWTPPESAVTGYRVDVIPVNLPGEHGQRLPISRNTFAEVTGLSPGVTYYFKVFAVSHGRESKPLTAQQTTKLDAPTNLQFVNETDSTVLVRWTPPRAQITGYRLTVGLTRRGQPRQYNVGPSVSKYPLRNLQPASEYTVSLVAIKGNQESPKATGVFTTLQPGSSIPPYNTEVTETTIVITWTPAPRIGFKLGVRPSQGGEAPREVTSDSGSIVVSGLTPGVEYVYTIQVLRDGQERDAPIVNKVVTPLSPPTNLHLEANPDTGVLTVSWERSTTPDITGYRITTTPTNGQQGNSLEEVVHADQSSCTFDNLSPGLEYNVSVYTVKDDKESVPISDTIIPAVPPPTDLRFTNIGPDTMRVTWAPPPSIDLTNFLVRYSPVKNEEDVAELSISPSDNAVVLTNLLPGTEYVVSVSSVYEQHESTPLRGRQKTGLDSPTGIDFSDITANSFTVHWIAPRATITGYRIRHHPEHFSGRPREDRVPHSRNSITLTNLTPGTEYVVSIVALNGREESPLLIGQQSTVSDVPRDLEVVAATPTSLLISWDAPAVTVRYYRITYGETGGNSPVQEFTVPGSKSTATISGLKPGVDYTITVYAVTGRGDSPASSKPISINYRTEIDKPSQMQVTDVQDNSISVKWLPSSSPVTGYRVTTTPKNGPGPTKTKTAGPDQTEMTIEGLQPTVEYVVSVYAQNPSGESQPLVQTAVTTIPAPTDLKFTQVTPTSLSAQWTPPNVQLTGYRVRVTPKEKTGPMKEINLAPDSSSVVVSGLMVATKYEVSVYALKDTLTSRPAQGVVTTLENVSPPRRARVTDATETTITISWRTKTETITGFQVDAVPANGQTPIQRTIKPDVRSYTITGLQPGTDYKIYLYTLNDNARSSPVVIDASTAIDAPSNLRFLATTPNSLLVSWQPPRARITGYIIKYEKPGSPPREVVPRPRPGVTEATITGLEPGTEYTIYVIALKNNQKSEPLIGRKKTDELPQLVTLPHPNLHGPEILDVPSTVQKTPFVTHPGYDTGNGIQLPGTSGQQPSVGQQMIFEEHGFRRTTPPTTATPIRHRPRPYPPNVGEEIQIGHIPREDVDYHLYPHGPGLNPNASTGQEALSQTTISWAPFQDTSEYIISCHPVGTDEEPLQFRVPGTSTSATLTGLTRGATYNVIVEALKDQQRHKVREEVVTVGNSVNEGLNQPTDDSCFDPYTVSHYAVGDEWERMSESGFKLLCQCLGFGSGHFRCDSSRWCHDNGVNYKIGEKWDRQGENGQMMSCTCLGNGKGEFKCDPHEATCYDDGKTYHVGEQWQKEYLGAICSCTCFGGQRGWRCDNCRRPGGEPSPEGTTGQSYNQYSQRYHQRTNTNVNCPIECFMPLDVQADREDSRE
Sequence of purified platelet CD9 (human) (P21926 2-228 limits assumed): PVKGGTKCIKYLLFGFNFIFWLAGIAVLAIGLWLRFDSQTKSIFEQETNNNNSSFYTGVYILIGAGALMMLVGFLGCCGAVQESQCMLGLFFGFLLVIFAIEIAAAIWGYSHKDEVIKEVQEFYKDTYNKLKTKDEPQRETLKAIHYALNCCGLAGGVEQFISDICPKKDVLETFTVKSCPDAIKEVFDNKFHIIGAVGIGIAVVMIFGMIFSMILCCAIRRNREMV
Sequence of His6-rCD9 (human) (P21926 whole entry): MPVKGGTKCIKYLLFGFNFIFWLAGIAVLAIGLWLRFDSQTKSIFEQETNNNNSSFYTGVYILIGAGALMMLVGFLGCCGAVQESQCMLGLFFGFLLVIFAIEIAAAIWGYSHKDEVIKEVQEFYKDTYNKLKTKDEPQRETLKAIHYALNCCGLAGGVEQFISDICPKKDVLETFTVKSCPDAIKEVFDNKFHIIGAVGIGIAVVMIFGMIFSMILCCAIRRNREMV
Sequence of peptide 5 (human) (chain, as listed by the source): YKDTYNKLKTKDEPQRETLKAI
Sequence of peptide 6 (human) (chain, as listed by the source): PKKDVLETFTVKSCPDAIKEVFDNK

- % positive [1]: 100%
- Fold-increase (over isotype control) (fold MFI over isotype control) [1]: 6
- % positive [2]: 100%
- Fold-increase (over isotype control) (fold MFI over isotype control) [2]: 0
- % positive [3]: 97%
- Fold-increase (over isotype control) (fold MFI over isotype control) [3]: 6
- % positive [4]: 100%
- Fold-increase (over isotype control) (fold MFI over isotype control) [4]: 7
Substance: antibody 7E2

- % positive [5]: 98%
- Fold-increase (over isotype control) (fold MFI over isotype control) [5]: 4
- % positive [6]: 100%
- Fold-increase (over isotype control) (fold MFI over isotype control) [6]: 4
Substance: antibody PB1

- EC50 [7]: 35.6 µg/mL and 81 nM
- binding relative to intact platelet purified CD9 (% of binding to platelet CD9) [8]: 65
- binding relative to intact platelet purified CD9 (% of binding to platelet CD9) [9]: 19
- EC50 [10]: 120 nM
- ELISA binding against purified CD9 (% lower than purified CD9) [11]: 40
Substance: human plasma fibronectin, P02751 32-2296 (ligand)
